Reference: patent US20250376535A1 (BEIJING STARMAB BIOMED TECHNOLOGY, published 2025)

T1: recombinant human IL-22 (human, UniProt Q9GZX6 34-179)
T1 construct: also called rh-IL22
T1 sequence: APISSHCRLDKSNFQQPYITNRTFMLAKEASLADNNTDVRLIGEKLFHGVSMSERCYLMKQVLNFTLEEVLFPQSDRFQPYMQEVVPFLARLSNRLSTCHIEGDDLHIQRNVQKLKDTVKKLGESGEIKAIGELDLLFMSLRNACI

B1: pgEG-SX20 (VHH, not shown: small tags and cut ends)
VHH: QVQLVESGGGLVQAGGSLRLSCAGARSAFSIKPMTWYRQAPGKERELVAYFNSGGSTNYADSVKGRFTISRDNAKNTMYLQMNNLKPEDTAVYYCNAIPPLGSWGQGTQVTVSS
B2: pgEG-SX56 (VHH, not shown: small tags and cut ends)
VHH: QVQLVESGGGFVQAGGSLRLSCAASGRFLSIADMDWYRRVPGKQRELVASITRAGDTALEDSVKGRFTISRDNAKNTVHLQMNSVKPEDTAVYYCRADVTRSGTPYFEVWGQGTLVTVSS
B3: pgEG-SX52 (VHH, not shown: small tags and cut ends)
VHH: QVQLVESGGGLVKAGKSLRLSCAASVSSFDTYTMGWYRQAPGKQREQVAIITPGAGTHYADSVKGRFTISRDNAKNTVYLQMSSLKLEDTAVYYCKARHRITGYDYWGQGTQVTVSS
B4: pgEG-SX9 (VHH, not shown: small tags and cut ends)
VHH: QVQLVESGGGLVQAGGSLRLSCAASVSGSALSNMAWYRQRPGNQRELVAHITFDNFTNYADSVKGRFTISRDNVKNTVDLQMSSLKPEDTAVYYCNARHFFGDNYWGKGTLVTVSS
B5: pgEG-SX55 (VHH, not shown: small tags and cut ends)
VHH: QVQLVESGGGLVQPGGSLRLSCAGTGLIFTTYVMGWYRQAPGKQRELVAIVTNGGGTHYADFVKGRFTISRDNAKNTVSLQMNLLKPEDTAVYYCNARHLVRPGTNDYWGQGTLVTVSS
B6: pgEG-SX39 (VHH, not shown: small tags and cut ends)
VHH: QVQVAESGGGLVQAGESLRLSCTASGSISTINAVRWYRQTPGKQREFVAYISTDGGTDYADPVKGRFTISRDNAKNTWFLQMNSLKPEDTGVYMCNVVVTPYAYWGQGTQVTVSS
B7: pgDD40-HZ-15 (VHH, not shown: small tags and cut ends)
VHH: EVQLVESGGGLVQAGGSLRLSCAASGFTFDDYAIGWFRQAPGKEREGVSCLSKNVGNTYYADSVKGRFTISSDNAKNTVYLQMNSLKPEDTAVYYCAKGSGYGCYDFPRYAVWGQGTQVTVSS
B8: pgDD40-HZ-47 (VHH, not shown: small tags and cut ends)
VHH: QVQLVESGGGLVQPGGSMRLSCSASGFSISVYWMSWVRRAPGKGLEWVSNLGADGVTAQYSDSVKGRFTIARDTAKNTLYLQMNSLKPEDTAVYYCNAMTGMNPAEEEAYWGQGTQVTVSS
B9: pgDD40-HZ-28 (VHH, not shown: small tags and cut ends)
VHH: EVQLVESGGGLVQAGGSLRLSCVASERTFTPVRMGWFRQAPGKEREIVAAITWSDGSTYYADAVKGRFTISRDNALNAVYLQIDSLKPEDTAVYVCAASTSPYSTHLQFRYWGQGTQVTVSS
B10: pgDD40-SZ-7 (VHH, not shown: small tags and cut ends)
VHH: QVQLVESGGALAQPGGSLRLSCEASATVRSVNAMAWYRQGPGKPRELVANITSGDTTYYADSVKGRFTLSREGARNTVYLQMNSLKPEDTAVYQCNIHYTSTGGIRRDYWGRGTQVTVSS
B11: Humanized IL22-223 (VHH)
VHH: EVQLVESGGGLVQPGGSLRLSCAASGFTLNYYVMSWFRQAPGKEREGVSAISSSDGSTYYADSVKGRFTISRDNSKNTLYLQMNSLRAEDTAVYYCAADLRAYYTVPLWASEYDYWGQGTVSS
notes: not shown: C-terminal His-tag
B12: IL22-354 (VHH)
VHH: EVQLVESGGGLVQPGGSLRLSCAASGFTLDYYAIAWFRQAPGKEREGVSCISTSDGSTYYADSVKGRFTISRDNAKNTVYLQMNSLKPEDTAVYYCAADPSPFFVAPLVDYEYDYWGQGTQVTVSS
notes: Llama single domain antibody with C-terminal His-tag; not shown: C-terminal His-tag
B13: IL22-A3 (VHH)
VHH: QVQLVESGGGLVQPGGSLRLSCEASGRTFSSVSMGWFRQAPGKERVIVAAADWSGTTYYTGSLKGRFTISRDNAKNMVYLQMNSLKPEDTAVYYCAASDPRRSAYKYWGQGTQVTVSS
notes: as for B12
B14: IL22-223 (VHH)
VHH: QVQLVESGGGLAQPGGSLRLSCAVSGFTLNYYVIAWFRQAPGKEREGVSCISSSDGSTYYTDSVKGRFTISRDNAKNTVYLQMDSLKPEDTAVYYCAADLRAYYTVPLWASEYDYWGQGTQVTVSS
notes: as for B12
B15: MSA2 (VHH)
VHH: EVQLVESGGGLAQAGGFLRLSCADSGHSFSLYAMAWFRQTPEKEREFVAAISSSGGDTYYADSVKGRFTISRENAKNTVYLQMDSLKPGDTAVYFCAGNYYTSQLMRGMYEHWGQGTQVTVSS
notes: Llama single domain antibody with C-terminal His-tag, made in HEK293; not shown: C-terminal His-tag
B16: MSA6 (VHH)
VHH: QVQLVESGGGLVQPGGSLRLSCAASGLPSRVMGWFRQAAGKEREFVASISVSGIDTRYGDSVKGRFTISRDNTKSSLYLQMNSLKPEDTAVYYCAATDGQGNYRHWGQGTQVTVSS
notes: as for B15

These binders were tested against T2, EGFR Fc (human, UniProt P00533 25-645) (assay: ELISA, EGFR Fc coated).
T2 construct: also called EGFR-hFc; recombinant human EGFR-Fc
Method: (§1) After four rounds of washing with PBST, the plate was incubated with detecting antibody anti-his-HRP (1:4000 dilution) 100 μl per well for one hour with shaking at 60 rpm. The plate was developed with 100 μL of TMB per well in the dark and then stopped by 50 μL of stop solution per well. […] Data was analyzed using GraphPad Prisma 9.1.

EC50 | Binder
0.025 nM | B1
0.044 nM | B2
0.105 nM | B3
0.0278 nM | B4
0.237 nM | B5
2760 nM | B6

Each binder was assayed against T3, recombinant human CD40-Fc (human, UniProt P25942 21-193) (assay: ELISA, CD40-Fc coated, VHH at 8 nM).
T3 construct: also called rh-CD40-Fc; CD40-hFc
T3 sequence (P25942 21-193): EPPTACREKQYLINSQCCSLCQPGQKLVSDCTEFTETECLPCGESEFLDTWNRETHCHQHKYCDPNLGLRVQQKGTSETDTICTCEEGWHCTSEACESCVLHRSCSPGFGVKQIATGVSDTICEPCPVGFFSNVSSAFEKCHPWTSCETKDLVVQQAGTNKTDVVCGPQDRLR
Method: (§2) After four times washing with PBST, the plate was incubated with detecting antibody anti-his-HRP (1:4000 dilution) 100 μl per well for one hour with shaking at 60 rpm. The plate was developed with 100 μL of TMB per well in the dark and then stopped by 50 μL of stop solution per well.

OD450 | Binder
0.061 | B7
0.063 | B8
0.059 | B9
1.6 | B10

The binders below were run against T2, EGFR Fc (assay: ELISA, EGFR Fc coated, VHH at 2 nM).
Method: as §1

OD450 | Binder
2.61 | B1
1.46 | B2
2.34 | B3
2.64 | B4
2.22 | B5
0.073 | B6

What follows are binders tested against T3, recombinant human CD40-Fc (assay: ELISA, CD40-Fc coated, VHH at 40 nM).
Method: as §2

OD450 | Binder
0.076 | B7
0.066 | B8
0.067 | B9
1.67 | B10

These binders were tested against T2, EGFR Fc (assay: ELISA, EGFR Fc coated, VHH at 10 nM).
Method: as §1

OD450 | Binder
2.6 | B1
1.54 | B2
2.44 | B3
2.4 | B4
2.42 | B5
0.093 | B6

The binders below were run against T2, EGFR Fc (assay: ELISA, EGFR Fc coated, VHH at 50 nM).
Method: as §1

OD450 | Binder
2.67 | B1
1.47 | B2
2.33 | B3
2.28 | B4
2.2 | B5
0.147 | B6

The binders below were run against T3, recombinant human CD40-Fc (assay: ELISA, CD40-Fc coated, VHH at 1.6 nM).
Method: as §2

OD450 | Binder
0.062 | B7
0.056 | B8
0.062 | B9
1.01 | B10

What follows are binders tested against T3, recombinant human CD40-Fc (assay: ELISA, CD40-Fc coated, VHH at 200 nM).
Method: as §2

OD450 | Binder
0.166 | B7
0.126 | B8
0.123 | B9
1.62 | B10

These binders were tested against T2, EGFR Fc (assay: ELISA, EGFR Fc coated, VHH at 0.4 nM).
Method: as §1

OD450 | Binder
2.67 | B1
1.32 | B2
2 | B3
2.4 | B4
1.61 | B5
0.067 | B6

These binders were tested against T2, EGFR Fc (assay: ELISA, EGFR Fc coated, VHH at 500 nM).
Method: as §1

OD450 | Binder
2.53 | B1
1.5 | B2
2.23 | B3
2.2 | B4
2.24 | B5
0.503 | B6

These binders were tested against T3, recombinant human CD40-Fc (assay: ELISA, CD40-Fc coated, VHH at 0.32 nM).
Method: as §2

OD450 | Binder
0.06 | B7
0.063 | B8
0.066 | B9
0.332 | B10

The binders below were run against T3, recombinant human CD40-Fc (assay: ELISA, CD40-Fc coated, VHH at 1000 nM).
Method: as §2

OD450 | Binder
0.479 | B7
0.569 | B8
0.419 | B9
1.67 | B10

Each binder was assayed against T2, EGFR Fc (assay: ELISA, EGFR Fc coated, VHH at 0.08 nM).
Method: as §1

OD450 | Binder
1.95 | B1
1.15 | B2
1.07 | B3
1.84 | B4
0.5 | B5
0.068 | B6

Each binder was assayed against T3, recombinant human CD40-Fc (assay: ELISA, CD40-Fc coated, VHH at 0.013 nM).
Method: as §2

OD450 | Binder
0.063 | B7
0.055 | B8
0.075 | B9
0.092 | B10

Each binder was assayed against T3, recombinant human CD40-Fc (assay: ELISA, CD40-Fc coated, VHH at 0.064 nM).
Method: as §2

OD450 | Binder
0.062 | B7
0.053 | B8
0.07 | B9
0.088 | B10

Each binder was assayed against T2, EGFR Fc (assay: ELISA, EGFR Fc coated, VHH at 0.016 nM).
Method: as §1

OD450 | Binder
1.13 | B1
0.569 | B2
0.32 | B3
0.903 | B4
0.193 | B5
0.072 | B6

The binders below were run against T3, recombinant human CD40-Fc (assay: ELISA, CD40-Fc coated, VHH at 0.0026 nM).
Method: as §2

OD450 | Binder
0.064 | B7
0.06 | B8
0.061 | B9
0.056 | B10

These binders were tested against T2, EGFR Fc (assay: ELISA, EGFR Fc coated, VHH at 0.0032 nM).
Method: as §1

OD450 | Binder
0.358 | B1
0.409 | B2
0.196 | B3
0.237 | B4
0.125 | B5
0.075 | B6

These binders were tested against T4, Human CD40 antigen (recombinant, BLI) (human, UniProt P25942 21-193) (assay: BLI, VHH-His on anti-His tips, human CD40 in solution;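 also: kinetics measured at 30 °C in PBS pH 7.2, association tracked for 200 s, then dissociation followed in PBS lacking CD40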).
T4 construct: also called rh-CD40
T4 sequence (P25942 21-193 limits assumed): as the sequence (P25942 21-193) above
Method: Bio-Layer Interferometry (BLI) kinetic binding analysis. […] Affinity measurements were performed with Gator equipped with Anti-Penta-His capture (HIS1K) biosensor tips. The assay was performed at 30° C. in 1×PBS buffer (Gibco®, PBS pH7.2). Samples were agitated at 1000 rpm. Prior to analysis, sensors were humidified for 15 min. […] Sensor data was collected throughout the experiments, processed, and analyzed using the Gator data analysis software.
Briefly, purified anti-CD40 VHH was tested for its binding capacity with HIS1K sensor tips. Tips were loaded using 20 μg/ml of anti-CD40 VHH. Loading proceeded for 300 sec resulting in capture levels of between 1.8 and 2 nm. […] Association was initiated and monitored for 200 sec, after which tips were transferred to 1×PBS buffer without CD40 protein in order to monitor dissociation.

Kd | koff | kon | Binder
3.12 nM | 0.0011 s⁻¹ | 351000 M⁻¹ s⁻¹ | B7
0.469 nM | 0.000625 s⁻¹ | 1.33e+06 M⁻¹ s⁻¹ | B8
4.06 nM | 0.00372 s⁻¹ | 917000 M⁻¹ s⁻¹ | B9
< 0.001 nM | 1e-06 s⁻¹ | 721000 M⁻¹ s⁻¹ | B10

Each binder was assayed against T1, recombinant human IL-22 (assay: BLI (Octet), His-tagged VHH on HIS1K tips, IL-22 in solution).
Method: Bio-Layer Interferometry (BLI), a label-free technology was used for measuring the binding kinetics of positive llama single domain antibodies. Affinity measurements were performed with Octet QKe equipped with Anti-Penta-His capture (HIS1K) biosensor tips (ForteBio®). The assay was performed at 30 C in 1×PBS buffer (Gibco®, PBS pH7.2). Samples were agitated at 1000 rpm. Prior to analysis, sensors were humidified for 15 minutes. Purified single domain antibodies was tested for its binding capacity with HIS1K sensor tips. Tips were loaded using 20 μg/ml of single domain antibodies. Loading proceeded for 300 s resulting in capture levels of between 1.8 and 2 nm. […] Association was initiated and monitored for 200 s, after which tips were transferred to 1×PBS buffer without Factor protein (Gibco, PBS pH 7.2), in order to monitor dissociation. Sensor data was collected throughout the experiments, processed, and analyzed using the Octet data analysis software 7 (Forte Bio).

Kd | koff | kon | Binder
1.07 nM | 0.000547 s⁻¹ | 509000 M⁻¹ s⁻¹ | B11
0.366 nM | 0.000184 s⁻¹ | 503000 M⁻¹ s⁻¹ | B12
0.817 nM | 0.000405 s⁻¹ | 496000 M⁻¹ s⁻¹ | B13
1.29 nM | 0.00036 s⁻¹ | 278000 M⁻¹ s⁻¹ | B14

What follows are binders tested against T5, human serum albumin (human, UniProt P02768 25-609) (assay: BLI (Gator), His-tagged VHH on anti-His sensor, HSA 100 nM in solution).
T5 construct: also called HSA
Method: Kinetic binding analysis of MSA VHHs were performed with Gator Prime system equipped with analyze software. […] The experiments were done at 30° C. Prior to analysis, sensors were socked in Q buffer for 600 sec with shaking at 1000 rpm, and then 2 μM of HIS tagged MSA VHHs were loaded to Anti-His sensors with shaking at 400 rpm for 120 sec. Loaded sensors were transferred into Q buffer for 60 sec. Association of HSA or MSA at 100 nM was initiated and monitored for 120-180 sec with shaking at 1000 rpm, and finally dissociation in Q buffer for 120-180 sec with 1000 rpm shaking. Software V2.0 (Gator Bio) was used for data analysis. The on-rate (Kₒₙ) and off-rate (Kd) were determined by fitting of the association and dissociation phases of each sample. The mathematical model used assumes a 1:1 stoichiometry, fitting only one analyte in solution binding to one binding site on the surface. The equilibrium dissociation constant (KD), a measure for affinity, was then calculated as the ratio of Kd and Kₒₙ.

koff | Kd | kon | Binder
0.0225 s⁻¹ | – | – | B15
0.00125 s⁻¹ | 20.9 nM | 59800 M⁻¹ s⁻¹ | B16
